{"source": "patent US8034783B2", "about": "“Prodomain modulators of ADAM 10” (Biozyme, Inc., priority 2006, dated 2011)", "molecules": {"B1": {"name": "wt ProADAM 10 23-213 (C-terminal His tag): wild type mouse ADAM 10 prodomain, amino acids 23-213, C-terminal His tag, expressed in E. coli (protein)", "chain": "NPLNKYIRHYEGLSYNVDSLHQKHQRAKRAVSHEDQFLLLDFHAHGRQFNLRMKRDTSLFSDEFKVETSNKVPDYDTSHIYTGHIYGEEGSFSHGSVIDGRFEGFIKTRGGTFYIEPAERYIKDRILPFHSVIYHEDDINYPHKYGPQGGCADHSVFERMRKYQMTGVEEGARAHPEKHAASSGPELLRKKHHHHHH"}, "B2": {"name": "wt ProADAM 10 23-213 (N-terminal His tag): wild type mouse ADAM 10 prodomain, amino acids 23-213, N-terminal His tag, expressed in E. coli (protein)", "chain": "NPLNKYIRHYEGLSYNVDSLHQKHQRAKRAVSHEDQFLLLDFHAHGRQFNLRMKRDTSLFSDEFKVETSNKVPDYDTSHIYTGHIYGEEGSFSHGSVIDGRFEGFIKTRGGTFYIEPAERYIKDRILPFHSVIYHEDDINYPHKYGPQGGCADHSVFERMRKYQMTGVEEGARAHPEKHAASSGPELLRKK", "modifications": "left off: small tags and cut ends", "notes": "wild type mouse ADAM 10 prodomain, amino acids 23-213, N-terminal His tag, expressed in E. coli"}, "B3": {"name": "Pro ADAM 17 (mouse): prodomain of mouse TACE (ADAM 17), residues 18-214, His-tagged, expressed in E. coli (protein)", "chain": "PRPPEEAGSGSHPRLEKLDSLLSDYDILSLANIQQHSIRKRDLQSATHLETLLTFSALKRHFKLYLTSSTERFSQNLRVVVVDGKEESEYSVKWQNFFSGHVVGEPDSRVLAHIGDDDVTVRINTDGAEYNVEPLWRFVNDTKDKRMLVYKSEDIKDFSRLQSPKVCGYLNADSEELLPKGLIDREPSEEFVRRVKR", "modifications": "left off: small tags and cut ends", "notes": "prodomain of mouse TACE (ADAM 17), residues 18-214, His-tagged, expressed in E. coli"}}, "key": {"ADAM 10 (human) Cat/Dis": {"molecular_target": "T1, ADAM 10 (human) Cat/Dis (Homo sapiens, UniProt O14672)", "T1 construct": "containing the catalytic/disintegrin domains; purchased R & D Systems (Minneapolis, Minn., USA)", "T1 sequence (O14672 214-672 limits assumed)": "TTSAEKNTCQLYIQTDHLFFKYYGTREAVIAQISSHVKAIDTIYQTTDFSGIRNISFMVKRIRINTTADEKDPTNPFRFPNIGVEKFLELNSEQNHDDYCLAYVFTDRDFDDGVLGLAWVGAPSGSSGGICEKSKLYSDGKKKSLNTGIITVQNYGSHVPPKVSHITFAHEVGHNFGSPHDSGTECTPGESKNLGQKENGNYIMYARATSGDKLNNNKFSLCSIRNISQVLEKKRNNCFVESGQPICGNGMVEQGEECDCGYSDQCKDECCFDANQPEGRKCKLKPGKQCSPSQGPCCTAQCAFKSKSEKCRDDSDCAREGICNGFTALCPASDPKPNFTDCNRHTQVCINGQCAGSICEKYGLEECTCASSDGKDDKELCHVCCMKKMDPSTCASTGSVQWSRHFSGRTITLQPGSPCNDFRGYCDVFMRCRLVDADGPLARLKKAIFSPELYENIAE", "test": "Inhibition assay with ADAM10 catalytic/disintegrin construct, fluorescent substrate", "type": "biochemical", "experimental": "(§1) Inhibition assays with TACE and ADAM 10. Activity of TACE catalytic/disintegrin, TACE catalytic, or ADAM10 catalytic/disintegrin constructs was monitored at 3 minute intervals using the fluorescent substrate, Dabcyl-LAQAHomoPheRSC(Fluorescein)-NH2 (SEQ ID NO 17) with excitation 485 nm and emission 530 nm. The substrate was diluted from a 10 mM stock in DMSO to 10 μM in assay buffer containing 20 mM Tris, pH 8.0, and 0.0006% Brij-35. Reactions were run in a 96-well black-coated plate with either ADAM10 prodomain (10 nM-1.0 μM) alone or with enzyme. Concentrations of enzyme ranged from 0.5-2.0 nM for TACE and 5-15 nM for ADAM10. For assays with TACE and ADAM8 prodomain, the range of concentrations varied from 1-4.7 μM.\n(§2) Calculation of inhibition constants. The amount of activity was calculated by subtracting the ADAM 10 prodomain control from the ADAM 10 prodomain with enzyme. All inhibition assays were performed at room temperature and the data fit to the following equation using Sigma Plot software:\n(§3) [formula] where If is fractional inhibition, I is the inhibitor concentration and Ki is the inhibition constant.\nWild type ADAM 10 prodomain (23-213) was tested to determine the mode of inhibition of ADAM 10 protein. ADAM 10 protein was diluted 1:100 in buffer 25 mM Tris pH 8, 0.0006% Brij-35 and then 10 μl was added to 88 μl of substrate (20-100 μM), Dabcyl-LAQAHomoPheRSC(Fluorescein)-NH2 with excitation 485 nm and emission 530 nm. Prodomain, 2 μl, in 25 mM Tris, pH 8, 100 mM NaCl, 10% glycerol, 0.1% mercaptoethanol, and 50 μM CaCl2 was added to substrate before addition of enzyme. The final concentration of prodomain ranged from 17-170 nM. The fluorescence vs time was plotted, and slopes were taken from straight line fits of initial velocities. The reciprocal of the velocities was plotted vs the reciprocal of substrate squared since the normal Lineweaver Burke plot gave curved lines. The initial velocities vs substrate concentrations were fit as a family of curves to several allosteric models."}, "MMP 1, 2, 3, 9, 13, 14": {"tested_on": "MMP 1, 2, 3, 9, 13, 14", "test": "Inhibition assays with MMPs", "type": "biochemical", "settings": "3 μM prodomain", "experimental": "Inhibition assays with MMPs. The fluorescent substrate Dabcyl-GPLGMRGC (Fluorescein)-NH2 (SEQ ID NO 18) (10 μM) in assay buffer containing 50 mM Tris, pH 7.5, 150 mM NaCl, 2 mM CaCl2, 5 μM ZnSO4, and 0.01% Brij-35 was used to monitor enzyme activities. MMPs 1, 2, 3, 9, 13, and 14 (0.1-20 nM) were incubated with substrate in the absence or presence of prodomain (3-30 μM). Fluorescence intensities were measured every 3-5 minutes at an emission wavelength of 530 nm (excitation 485 nm).\nas §2, §3"}, "CD23 shedding in B cells": {"tested_on": "CD23 shedding in B cells", "test": "CD23 shedding in B cells, flow cytometry", "type": "cell-based", "settings": "1-5 μM, 12 hr", "experimental": "The CD23 sheddase activity of ADAM 10 protein was further tested in a B-cell assay. B-cells were cultured for 12 hr in the presence or absence of IL-4 (100 ng/ml), wild type C-terminal His tagged ADAM 10 (23-213) (1-5 μM) or match diluent control (25 mM Tris-HCl pH 8, 100 mM NaCl, 10% glycerol, 0.1% β-mercaptoethanol). Cells were stained for expression of surface antigens following washing with 1% BSA/PBS. Cells were incubated for 30 minutes at 4° C. in the dark with fluorochrome-conjugated mAbs: APC-CD19 (CALTAG, Burlingame, Calif.), CD23-PE, mlgG1-PE (BD Biosciences) before washing to remove unbound mAb. Cells were resuspended in PBS and immediately analyzed with the use of the FACS Calibur (BD Biosciences). The software program FlowJo (Ashland, Oreg.) was used to analyze data generated by flow cytometry."}, "[1]": {"molecular_target": "T2, ADAM 8 (mouse) catalytic domain (Mus musculus, UniProt Q05910)", "T2 construct": "The ADAM 8 catalytic domain was expressed and purified from E. coli as described (22); made in house; host or cells: E. coli", "T2 sequence (Q05910 196-395 limits assumed)": "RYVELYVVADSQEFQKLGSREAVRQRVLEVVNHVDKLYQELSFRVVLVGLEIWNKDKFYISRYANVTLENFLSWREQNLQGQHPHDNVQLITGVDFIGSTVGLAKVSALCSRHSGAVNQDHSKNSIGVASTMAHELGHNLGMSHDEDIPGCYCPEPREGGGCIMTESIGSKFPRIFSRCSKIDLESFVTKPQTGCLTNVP", "test": "Inhibition assay with ADAM 8 catalytic domain", "type": "biochemical", "settings": "at 1.7 μM", "experimental": "Inhibition assays with ADAM 8. The ADAM 8 catalytic domain was expressed and purified from E. coli as described (22). A substrate based on the L-selectin cleavage site, Dnp-INorIeuQKLDKSFSMIKE-NH2 (SEQ ID NO 20), was used to monitor enzyme activity with a fluorescamine assay. From a concentrated 50 mM solution in DMSO, the substrate was diluted 1:500 in 25 mM HEPES, pH 8.0, 0.0006% Brij-35. To 100 μl of diluted substrate was added either 5 μl of buffer (Tris, pH 8.0, 150 mM KCl) or 5 μl of ADAM10 prodomain (1-10 μM). Zero time points were taken by diluting 12.5 μl of the reaction mixture into 100 μl of fluorescamine buffer (50 mM HEPES, pH 8.0, 0.2 M NaCl, 0.01 M CaCl2, 0.01% Brij-35) in a 96-well black-coated plate. Before measuring fluorescence, 3 μl of a 1% solution of fluorescamine in DMSO was added to each well. The plate was allowed to incubate for 10 min in the dark before measuring fluorescence (excitation wavelength at 390 nm, emission wavelength at 485 nm). For assays with TACE and ADAM8 prodomains, a fluorescent substrate was used to monitor activity at concentrations of prodomains ranging from 1-4.7 μM.\nCalculation of inhibition constants. The amount of activity was calculated by subtracting the ADAM 10 prodomain control from the ADAM 10 prodomain with enzyme. […]"}, "TACE (human) Cat/Dis": {"molecular_target": "T3, TACE (human) Cat/Dis (Homo sapiens, UniProt P78536)", "T3 construct": "containing the catalytic/disintegrin domains; purchased R & D Systems (Minneapolis, Minn., USA)", "T3 sequence (P78536 215-671 limits assumed)": "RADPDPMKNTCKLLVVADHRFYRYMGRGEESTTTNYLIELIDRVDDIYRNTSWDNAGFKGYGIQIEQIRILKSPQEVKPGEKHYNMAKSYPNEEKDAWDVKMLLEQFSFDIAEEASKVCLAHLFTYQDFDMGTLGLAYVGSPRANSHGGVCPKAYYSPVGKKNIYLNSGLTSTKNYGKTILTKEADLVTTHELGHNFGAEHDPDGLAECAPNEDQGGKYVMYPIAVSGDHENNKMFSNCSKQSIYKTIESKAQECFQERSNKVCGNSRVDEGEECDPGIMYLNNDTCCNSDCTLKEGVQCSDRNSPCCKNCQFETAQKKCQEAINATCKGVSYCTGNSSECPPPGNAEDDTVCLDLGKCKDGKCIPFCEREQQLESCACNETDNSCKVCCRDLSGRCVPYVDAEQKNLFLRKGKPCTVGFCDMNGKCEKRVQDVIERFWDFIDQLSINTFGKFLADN", "test": "Inhibition assay with TACE catalytic/disintegrin construct, fluorescent substrate", "type": "biochemical", "experimental": "as §1, §2, §3"}, "TACE (human) Cat": {"molecular_target": "T4, TACE (human) Cat (Homo sapiens, UniProt P78536)", "T4 construct": "TACE catalytic domain, Marcos Milla, University of Pennsylvania; donated by Marcos Milla, University of Pennsylvania", "T4 sequence (P78536 223-474 limits assumed)": "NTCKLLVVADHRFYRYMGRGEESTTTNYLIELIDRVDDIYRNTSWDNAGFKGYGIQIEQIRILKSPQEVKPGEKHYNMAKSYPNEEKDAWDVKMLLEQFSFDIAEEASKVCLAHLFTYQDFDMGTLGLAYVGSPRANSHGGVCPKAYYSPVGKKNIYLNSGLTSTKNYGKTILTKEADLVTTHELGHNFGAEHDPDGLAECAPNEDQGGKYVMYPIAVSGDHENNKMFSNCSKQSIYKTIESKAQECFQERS", "test": "Inhibition assay with TACE catalytic domain, fluorescent substrate", "type": "biochemical", "settings": "at 3.5 μM", "experimental": "as §1, §2, §3"}}, "note": "Non-standard residues stand in square brackets, D forms with d. Primed or numbered codes have the meaning given here. *: point of attachment. Fluorescein = fluorescein label attached to the cysteine side chain; Dabcyl′ = CN(C)c1ccc(/N=N/c2ccc(C(=O)*)cc2)cc1; hPhe = N[C@@H](CCc1ccccc1)C(=O)O"}
{"molecule": "Dabcyl-LAQAHomoPheRSC(Fluorescein)-NH2 ({Dabcyl′}-LAQA[hPhe]RSC(Fluorescein)-NH2) [fluorescent substrate for TACE and ADAM10 assays, reference compound]", "values": [{"measurement": "binding constant, Ks for substrate", "setting": "ADAM 10 (human) Cat/Dis; fit to pure competitive allosteric model", "value": "16 ± 4.6", "unit": "µM"}]}
{"molecule": "B1", "values": [{"measurement": "mode of inhibition of ADAM 10 protein", "setting": "ADAM 10 (human) Cat/Dis; initial velocities fit to allosteric models", "value": "pure competitive"}, {"measurement": "inhibition of matrix metalloproteinases 1, 2, 3, 9, 13 and 14", "setting": "MMP 1, 2, 3, 9, 13, 14", "value": "not inhibited"}, {"measurement": "inhibition of shedding in B cells stimulated with IL-4", "setting": "CD23 shedding in B cells; IL-4 100 ng/ml, FIG. 2D", "value": "able to inhibit shedding"}, {"measurement": "inhibition of shedding in B cells", "setting": "CD23 shedding in B cells; without IL-4, FIG. 2C", "value": "able to inhibit shedding"}]}
{"molecule": "B2", "values": [{"measurement": "inhibition of matrix metalloproteinases 1, 2, 3, 9, 13 and 14", "setting": "MMP 1, 2, 3, 9, 13, 14", "value": "not inhibited"}]}
{"molecule": "B3", "values": [{"measurement": "inhibition of ADAM 10 (human) Cat/Dis", "setting": "ADAM 10 (human) Cat/Dis; at 3.5 μM", "value": 11, "unit": "% at 3.5 μM"}, {"measurement": "inhibition of ADAM 8 (mouse) Cat", "setting": "[1]", "value": 17, "unit": "% at 1.7 μM"}, {"measurement": "inhibition of TACE (human) Cat/Dis", "setting": "TACE (human) Cat/Dis; at 3.5 μM", "value": 0, "unit": "%"}, {"measurement": "inhibition of respective enzyme (TACE) by its prodomain", "setting": "TACE (human) Cat/Dis; micromolar concentrations", "value": "did not inhibit"}, {"measurement": "inhibition of TACE (human) Cat", "setting": "TACE (human) Cat", "value": 37, "unit": "%"}]}
